What was measured:
[1] = substrate: CCNc1nc(N)c2ncn([C@@H]3O[C@H](COP(=O)(O)O)[C@@H](O)[C@H]3O)c2n1; test: (§1) Concentration of compound for half-maximal velocity to Adenylate kinase M isoenzyme
[2] = substrate: CN(C)c1nc(N)c2ncn(C3O[C@H](COP(=O)(O)O)[C@@H](O)[C@H]3O)c2n1; test: as §1
[3] = substrate: CNc1nc(N)c2ncn([C@@H]3O[C@H](COP(=O)(O)O)[C@@H](O)[C@H]3O)c2n1; test: as §1
[4] = substrate: C[C@@H]1[C@H](O)[C@@H](COP(=O)(O)O)O[C@H]1n1cnc2c(N)ncnc21; test: as §1
[5] = substrate: C[C@H](OP(=O)(O)O)[C@H]1OC(n2cnc3c(N)ncnc32)[C@H](O)[C@@H]1O; test: as §1
[6] = substrate: Nc1nc(Cl)nc2c1ncn2[C@@H]1O[C@H](COP(=O)(O)O)[C@@H](O)[C@H]1O; test: as §1
[7] = substrate: Nc1nc(N)c2ncn([C@@H]3O[C@H](COP(=O)(O)O)[C@@H](O)[C@H]3O)c2n1; test: as §1
[8] = substrate: Nc1ncnc2c1ncn2[C@@H]1O[C@H](/C=C/P(=O)(O)O)[C@@H](O)[C@H]1O; test: as §1
[9] = substrate: Nc1ncnc2c1ncn2[C@@H]1O[C@H](CCP(=O)(O)O)[C@@H](O)[C@H]1O; test: as §1
[10] = substrate: Nc1ncnc2c1ncn2[C@@H]1O[C@H](COP(=O)(O)O)[C@@H](O)[C@H]1O; test: as §1
[11] = substrate: CCC[C@H](OP(=O)(O)O)[C@H]1OC(n2cnc3c(N)ncnc32)[C@H](O)[C@@H]1O; test: (§2) Concentration for half-maximal velocity to Adenylate kinase III
[12] = substrate: CCNc1nc(N)c2ncn([C@@H]3O[C@H](COP(=O)(O)O)[C@@H](O)[C@H]3O)c2n1; test: as §2
[13] = substrate: CNc1nc(N)c2ncn([C@@H]3O[C@H](COP(=O)(O)O)[C@@H](O)[C@H]3O)c2n1; test: as §2
[14] = substrate: C[C@@H]1[C@H](O)[C@@H](COP(=O)(O)O)O[C@H]1n1cnc2c(N)ncnc21; test: as §2
[15] = substrate: C[C@H](OP(=O)(O)O)[C@H]1OC(n2cnc3c(N)ncnc32)[C@H](O)[C@@H]1O; test: as §2
[16] = substrate: Nc1nc(Cl)nc2c1ncn2[C@@H]1O[C@H](COP(=O)(O)O)[C@@H](O)[C@H]1O; test: as §2
[17] = substrate: Nc1nc(N)c2ncn([C@@H]3O[C@H](COP(=O)(O)O)[C@@H](O)[C@H]3O)c2n1; test: as §2
[18] = substrate: Nc1ncnc2c1ncn2[C@@H]1O[C@H](/C=C/P(=O)(O)O)[C@@H](O)[C@H]1O; test: as §2
[19] = substrate: Nc1ncnc2c1ncn2[C@@H]1O[C@H](CCP(=O)(O)O)[C@@H](O)[C@H]1O; test: as §2
[20] = substrate: Nc1ncnc2c1ncn2[C@@H]1O[C@H](COP(=O)(O)O)[C@@H](O)[C@H]1O; test: as §2

Row | Protein | Km [1] [µM] | Km [2] [µM] | Km [3] [µM] | Km [4] [µM] | Km [5] [µM] | Km [6] [µM] | Km [7] [µM] | Km [8] [µM] | Km [9] [µM] | Km [10] [µM] | Km [11] [µM] | Km [12] [µM] | Km [13] [µM] | Km [14] [µM] | Km [15] [µM] | Km [16] [µM] | Km [17] [µM] | Km [18] [µM] | Km [19] [µM] | Km [20] [µM]
1 | Adenylate kinase isoenzyme 1 (Rattus norvegicus), P39069 (protein) MEDKLKKAKIIFVVGGPGSGKGTQCEKIVQKYGYTHLSTGDLLRAEVSSGSSRGKMLSSIMEKGELVPLETVLDMLRDAMLAKVDSSNGFLIDGYPREVKQGEEFERKIAQPTLLLYVDAGPETMTQRLLKRGETSGRVDDNEETIKKRLETYYKATEPVISFYDKRGIVRKVNAEGSVDTVFSQVCTYLDSLK | 4200 | 7500 | 2900 | 5500 | 2000 | 2700 | 3500 | 2000 | 4200 | 580 |  |  |  |  |  |  |  |  |  | 
2 | GTP:AMP phosphotransferase AK3, mitochondrial (Rattus norvegicus), P29411 (protein) MGASGRLLRAVIMGAPGSGKGTGSSRITKHFELKHLSSGDLLRQNMLQGTEIAVLAKSFIDQGKLIPDDDMTRLALHELKNLTQCSWLLDGFPRTLPQAEALDRVYQIDTVINLNVPFEVIKLRLTARWIHPASGRVYNIEFNPPKTVGIDDLTGEPLIQREDDKPETVIKRLKAYEAQTEPVLQYYQKKGVLETFSGTETNKIRPHVYSFLQMKVPETIQKASVTP |  |  |  |  |  |  |  |  |  |  | 830 | 5400 | 3700 | 790 | 1100 | 1600 | 1900 | 1400 | 2200 | 80

Reference: ChEMBL document CHEMBL1122090, “Species- or isozyme-specific enzyme inhibitors. 7. Selective effects in inhibitions of rat adenylate kinase isozymes by adenosine 5'-phosphate derivatives” (J Med Chem, 1982)
